Measured values published in patent publication US20250304927A1, “PRO-PEPTIDE VARIANTS FOR MODULATING ACTIVITY OF TRANSGLUTAMINASES” (CURIE CO. INC., priority 2022, published 2025).

Target: T1, mature evolved transglutaminase (SEQ ID NO: 5) (Streptomyces mobaraensis, UniProt P81453, G359A/K167H/K227R/K228R/N358M/Q126S/Q150A/Q200L)
T1 construct: hexa-His tag with two amino acid linker (C); made in house; host or cells: E. coli BL21 (DE3)
Test: transglutaminase thermostability: activity after being held at 37-50 °C
Type: biochemical
Set-up: key: The symbol, —, represents not determined, neutral, or reduced performance
Details: relative to wild-type pro-peptide; held at 37° C.-50° C. for 30 minutes, diluted 10-fold to 100-fold
Experimental: The terms “stability” and “thermostability” are used interchangeably to refer to increased residual activity of mature transglutaminase after incubation at elevated temperatures. In some embodiments, a pro-peptide variant increases the stability of a mature transglutaminase compared to the wild type pro-peptide. Measurement of stability is depicted in Example 4.
It is believed that these pro-peptide variants confer thermal stability to mature transglutaminase.

T1 sequence (P81453 other isoform, or with tags, fused parts or gaps Q126S/Q150A/K167H/Q200L/K227R/K228R/N358M/G359A): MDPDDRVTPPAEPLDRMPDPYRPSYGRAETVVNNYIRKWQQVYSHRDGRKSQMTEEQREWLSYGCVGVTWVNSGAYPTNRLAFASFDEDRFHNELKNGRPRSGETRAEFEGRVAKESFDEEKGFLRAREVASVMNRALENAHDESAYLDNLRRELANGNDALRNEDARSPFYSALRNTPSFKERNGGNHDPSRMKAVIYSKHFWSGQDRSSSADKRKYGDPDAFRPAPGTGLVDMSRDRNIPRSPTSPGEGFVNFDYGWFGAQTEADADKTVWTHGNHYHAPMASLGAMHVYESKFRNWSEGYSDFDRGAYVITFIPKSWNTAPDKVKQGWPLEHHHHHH

Substance	Thermostability
L18V, D21T: combination variant of pro-peptide SEQ ID NO: 2, Method B (MDNGAGEETKSYAETYRVTATDVANINALNESAPAASSAGPSFRAP)	—
E7S, D21R: combination variant of pro-peptide SEQ ID NO: 2, Method B (MDNGAGSETKSYAETYRLTARDVANINALNESAPAASSAGPSFRAP)	—
D2I, D22Q: combination variant of pro-peptide SEQ ID NO: 2, Method B (MINGAGEETKSYAETYRLTADQVANINALNESAPAASSAGPSFRAP)	—
E7S, D21T: combination variant of pro-peptide SEQ ID NO: 2, Method B (MDNGAGSETKSYAETYRLTATDVANINALNESAPAASSAGPSFRAP)	—
E7S, L18V, D21R: combination variant of pro-peptide SEQ ID NO: 2, Method B (MDNGAGSETKSYAETYRVTARDVANINALNESAPAASSAGPSFRAP)	—
D2I, E7S, D21I: combination variant of pro-peptide SEQ ID NO: 2, Method B (MINGAGSETKSYAETYRLTAIDVANINALNESAPAASSAGPSFRAP)	—
E7S, L18V, D21I: combination variant of pro-peptide SEQ ID NO: 2, Method B (MDNGAGSETKSYAETYRVTAIDVANINALNESAPAASSAGPSFRAP)	—
E7S, D21T, D22Q: combination variant of pro-peptide SEQ ID NO: 2, Method B (MDNGAGSETKSYAETYRLTATQVANINALNESAPAASSAGPSFRAP)	—
D2S, E7S, D22Q: combination variant of pro-peptide SEQ ID NO: 2, Method B (MSNGAGSETKSYAETYRLTADQVANINALNESAPAASSAGPSFRAP)	—
D2I, E7S, D22Q: combination variant of pro-peptide SEQ ID NO: 2, Method B (MINGAGSETKSYAETYRLTADQVANINALNESAPAASSAGPSFRAP)	—
